Test results: patent US20050260207A1 (published 2005)

Target: recombinant human cathepsin B (human, UniProt P07858 80-333)
Experiment: Western blot of recombinant human cathepsin B, goat anti-human IgG-HRP as secondary antibody
Text: A: polyacrylamide gel electrophoresis of recombinant human cathepsin B (1) and of standards (2); B: Western blot—cathepsin B (1) stained with chimeric 2A2 antibody. Goat anti-human antibody (IgG) conjugated with horseradish peroxidase was used as a secondary antibody. As the substrate 0.05% diaminobenzidine (DAB) and 0.01% of H₂O₂ in 0.05M Tris/HCl buffer, pH 7.5 were used.

binding result: binds
B1: chimeric 2A2 antibody, expressed in Chinese hamster ovary (CHO) cells (antibody, V domains shown)
VH: QVQLQQSGAELVRSGASIKLSCTASGFNIKDYYMHWVKQRPEQGLEWIGWIDPENGDTEYAPKFRGKATMTADTSSKTAYLQLSSLTSEDTAVYYCNARRHGYYEMDYWGQGTSVTVSS
VL: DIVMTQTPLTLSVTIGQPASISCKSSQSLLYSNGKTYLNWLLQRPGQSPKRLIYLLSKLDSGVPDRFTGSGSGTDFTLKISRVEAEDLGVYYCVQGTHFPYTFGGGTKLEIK
notes: A secretion leader was used for expression and is not part of the mature protein; also called chimeric antibody 2A2; 2A2 chimeric antibody; not shown: human IgG1 heavy chain constant region (human Cgamma1 region from pUC/hIgG1); human kappa light chain constant region (human Ckappa gene from pUC/hCK)
